Results taken from patent publication US20220143204A1 (LINXIS B V, published 2022).

Assays:
[1] = biological target: T1, rat PDGFRB on SCC VII cells (rat, UniProt Q05030 32-1097); assay: binding assay on SCC VII cells transfected with rat PDGFRB-GFP, VHH detected with anti-VHH rabbit serum and IRDye800CW secondary antibody; binding in % (n=2) [right panel]
T1 construct: whole, on cells; also called rPDGFRB; SCC-rPDGFRB
Procedure: (§1) FIG. 9. Binding of selected VHHs on SCC VII cells transfected with either the human or rat PDGFRB receptor (SCC-hP or SCC-rP) fused to GFP. The VHH is detected using anti-VHH rabbit serum and donkey-anti-rabbit secondary antibody labelled with IRDye800CW.
(§2) The results are summarized in FIGS. 5 and 6 for the hPDGFRB and rPDGFRB VHHs, respectively. […] Moreover, the binding affinities of the hPDGFRB VHHs human were also determined on the human hepatic stellate cell (HSC) line LX-2 (FIG. 5).

[2] = biological target: T2, rat PDGFRB extracellular domain (rat, UniProt Q05030 32-531); assay: binding assay on immobilised rat PDGFRB ectodomain, apparent affinity (Example 4)
T2 construct: extracellular domain; also called rPDGFRB-ECD; rat PDGFRB ectodomain
T2 sequence (looked up): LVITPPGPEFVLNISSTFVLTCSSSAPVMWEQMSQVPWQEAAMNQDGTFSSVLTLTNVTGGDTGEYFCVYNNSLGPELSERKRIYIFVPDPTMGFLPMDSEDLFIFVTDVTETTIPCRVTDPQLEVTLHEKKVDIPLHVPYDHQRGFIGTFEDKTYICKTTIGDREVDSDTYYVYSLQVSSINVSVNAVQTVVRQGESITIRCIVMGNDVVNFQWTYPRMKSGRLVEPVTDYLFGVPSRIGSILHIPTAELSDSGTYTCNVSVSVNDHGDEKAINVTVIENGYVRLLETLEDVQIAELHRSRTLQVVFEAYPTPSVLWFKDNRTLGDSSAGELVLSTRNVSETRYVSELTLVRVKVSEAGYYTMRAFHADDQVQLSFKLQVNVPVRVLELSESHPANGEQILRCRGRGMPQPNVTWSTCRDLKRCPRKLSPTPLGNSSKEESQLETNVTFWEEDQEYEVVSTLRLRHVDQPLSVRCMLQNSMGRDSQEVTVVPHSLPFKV

[3] = biological target: T1, rat PDGFRB on SCC VII cells; assay: binding assay on SCC VII cells transfected with rat PDGFRB (Example 4)
[4] = biological target: T3, human IGF2R on cells (human, UniProt P11717 41-2491); assay: binding assay on SCC VII cells over-expressing human IGF2R
T3 construct: whole, on cells; On SCC VII cells over-expressing human IGF2R, NIH 3T3 2.2 cells transiently transfected with hIGF2R, or A549 cells, as told under assay or readout; also called hIGF2R
Procedure: (§3) To determine whether 13F11-13E8 is cross-reactive against rIGF2R, the construct was conjugated to IRDye800CW (13F11-13E8-IRDye800CW, conjugation method as described in example 9.2) and the binding affinity was determined using a binding assay on SCC VII cells over-expressing either human, or rat IGF2R (FIG. 12).

[5] = biological target: T4, rat IGF2R on cells (rat, UniProt A0A8I6GLL6 43-2479); assay: binding assay on SCC VII cells over-expressing rat IGF2R
T4 construct: whole, on cells; also called rIGF2R
Procedure: as §3

[6] = biological target: T5, human PDGFRB on SCC VII cells (human, UniProt P09619 33-1106); assay: binding assay on SCC VII cells transfected with hPDGFRB
T5 construct: whole, on cells; also called hPDGFRB; SCC-hPDGFRB
Procedure: (§4) Based on their high affinity and binding to non-overlapping hPDGRB epitopes, VHHs SP02P, SP12P SP14P and […] were selected for the design of biparatopic VHH constructs and produced in a similar way as described in example 6.1. (FIG. 15A). The binding affinities of the biparatopic constructs were determined with an ELISA assay with the periplasm (FIG. 15A). Moreover, based on their high affinity and binding to non-overlapping rPDGRB epitopes, VHHs SP26P and SP28P were selected for the design of a biparatopic VHH construct and produced in a similar way as described in example 6.1. The formed biparatopic SP28P-SP26P was conjugated to IRDye800CW (SP28P-SP26P-IRDye800CW conjugation method as described in example 9.2) and subjected to a binding assay SCC VII cells transfected with hPDGFRB, rPDGFRB or hIGF2R were performed (FIG. 15B). […] In order to create a biparatopic VHH construct which is cross-reactive for hPDGFRB and rPDGFRB, VHH SP02P binding to hPDGFRB and VHH SP026P binding to rPDGFRB were selected and the biparatopic construct SP02P-SP26P was produced in a similar way as described in example 6.1. (FIG. 15C). Construct SP02P-SP26P was conjugated to IRDye800CW (SP02P-SP26P-IRDye800CW, conjugation method as described in example 9.2) and subjected to bindings assays on SCC VII cells transfected with hPDGFRB, rPDGFRB or hIGF2R were performed (FIG. 15C).

[7] = biological target: T5, human PDGFRB on SCC VII cells; assay: binding assay of the IRDye800CW conjugate on SCC VII cells transfected with human PDGFRB, fluorescence at 800 nm
Procedure: as §4

[8] = biological target: PDGFRB ECD; assay: competition ELISA on PDGFRB ECD: unconjugated competitor titrated against SP26P-IRDye800, fluorescence at 800 nm
Procedure: Competition ELISAs were carried out to determine whether the hPDGFRB specific binders (FIG. 5) and rPDGFRB specific binders (FIG. 6) recognize distinct epitopes on hPDGFRB or rPDGFRB, respectively. The hPDGFRB binding VHHs SP02P, SP05P, SP12P and SP14P and the rPDGFRB binder SP26P were conjugated to IRDye800CW (VHH-IRDye800CW, conjugation method as described in example 9.2) and each conjugated VHH was mixed with unconjugated competitor in trifold serial dilutions and incubated on immobilized […]. Two VHHs share (part of) the same epitope when the fluorescence signal of the VHH-IRDye800CW decreases upon increasing concentration of unconjugated VHH. Furthermore, using a similar method as described in section 5.1, binding epitope competition between the hPDGFRB binding VHH SP02P and rPDGFRB binding VHH SP26P was performed. No competition was observed between the two VHHs qualifying them as building blocks for biparatopic binding molecules (FIG. 11).

[9] = biological target: T6, human PDGFRB extracellular domain (human, UniProt P09619 33-532); assay: binding and competition assays of Examples 4 and 5
T6 construct: extracellular domain; also called hPDGFRB-ECD; human PDGFRB ectodomain

[10] = biological target: T6, human PDGFRB extracellular domain; assay: binding assay on immobilised human PDGFRB ectodomain, apparent affinity (Example 4)
[11] = biological target: T5, human PDGFRB on SCC VII cells; assay: binding assay on SCC VII cells transfected with human PDGFRB (Example 4)
[12] = biological target: T7, human PDGFRB on LX-2 cells (human, UniProt P09619); assay: binding assay on the human hepatic stellate cell line LX-2 (Example 4)
T7 construct: full-length receptor on the cell surface; The list has human PDGFRB only on SCC VII cells

[13] = biological target: T5, human PDGFRB on SCC VII cells; assay: binding assay on SCC VII cells transfected with human PDGFRB-GFP, VHH detected with anti-VHH rabbit serum and IRDye800CW secondary antibody; binding in % (n=6) [left panel]
Procedure: as §1, §2

T5 sequence (P09619 33-1106): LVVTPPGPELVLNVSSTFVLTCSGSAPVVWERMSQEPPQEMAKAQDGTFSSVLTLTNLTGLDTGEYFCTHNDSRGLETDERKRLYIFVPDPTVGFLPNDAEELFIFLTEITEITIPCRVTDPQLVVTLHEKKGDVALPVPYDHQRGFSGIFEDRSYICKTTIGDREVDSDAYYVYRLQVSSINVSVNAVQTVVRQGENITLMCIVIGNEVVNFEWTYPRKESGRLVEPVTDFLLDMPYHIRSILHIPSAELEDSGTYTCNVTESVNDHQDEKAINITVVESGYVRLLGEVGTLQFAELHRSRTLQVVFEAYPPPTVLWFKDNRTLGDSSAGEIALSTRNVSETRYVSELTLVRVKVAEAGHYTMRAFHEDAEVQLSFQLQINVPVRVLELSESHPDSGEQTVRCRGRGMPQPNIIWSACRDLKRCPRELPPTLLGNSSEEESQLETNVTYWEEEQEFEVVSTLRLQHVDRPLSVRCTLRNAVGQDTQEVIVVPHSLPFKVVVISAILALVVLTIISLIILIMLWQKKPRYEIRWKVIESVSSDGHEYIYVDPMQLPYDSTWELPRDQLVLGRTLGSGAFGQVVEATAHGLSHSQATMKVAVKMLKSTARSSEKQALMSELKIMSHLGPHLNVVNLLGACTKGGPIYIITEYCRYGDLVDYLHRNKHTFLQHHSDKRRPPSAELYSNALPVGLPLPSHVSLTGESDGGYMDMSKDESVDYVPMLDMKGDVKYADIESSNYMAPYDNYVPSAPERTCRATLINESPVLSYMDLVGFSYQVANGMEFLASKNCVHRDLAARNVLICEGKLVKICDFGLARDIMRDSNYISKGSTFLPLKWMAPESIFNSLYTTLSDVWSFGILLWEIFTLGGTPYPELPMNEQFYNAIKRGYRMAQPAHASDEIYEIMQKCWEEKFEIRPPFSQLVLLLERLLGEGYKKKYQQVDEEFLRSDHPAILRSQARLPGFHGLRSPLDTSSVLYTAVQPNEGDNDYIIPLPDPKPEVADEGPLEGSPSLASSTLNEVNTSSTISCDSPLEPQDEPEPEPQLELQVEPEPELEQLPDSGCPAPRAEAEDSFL
T6 sequence (P09619 33-532): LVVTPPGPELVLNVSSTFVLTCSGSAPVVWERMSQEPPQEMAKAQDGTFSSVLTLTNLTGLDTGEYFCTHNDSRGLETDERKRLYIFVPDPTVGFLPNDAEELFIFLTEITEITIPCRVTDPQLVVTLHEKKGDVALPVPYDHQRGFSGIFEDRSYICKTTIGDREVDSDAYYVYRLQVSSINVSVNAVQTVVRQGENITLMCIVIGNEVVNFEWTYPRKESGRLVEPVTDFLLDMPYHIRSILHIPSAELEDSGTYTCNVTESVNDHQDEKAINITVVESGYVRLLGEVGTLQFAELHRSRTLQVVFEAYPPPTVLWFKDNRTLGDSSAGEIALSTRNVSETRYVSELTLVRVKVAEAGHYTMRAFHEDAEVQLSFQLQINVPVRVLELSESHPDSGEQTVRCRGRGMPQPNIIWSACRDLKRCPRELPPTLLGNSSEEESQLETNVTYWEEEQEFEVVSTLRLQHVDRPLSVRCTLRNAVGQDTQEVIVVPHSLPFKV
Sequence of PDGFRB ECD (P09619 33-532): as above
T7 sequence (P09619 33-1106 limits assumed): as the sequence (P09619 33-1106) above
T3 sequence (P11717 41-2491): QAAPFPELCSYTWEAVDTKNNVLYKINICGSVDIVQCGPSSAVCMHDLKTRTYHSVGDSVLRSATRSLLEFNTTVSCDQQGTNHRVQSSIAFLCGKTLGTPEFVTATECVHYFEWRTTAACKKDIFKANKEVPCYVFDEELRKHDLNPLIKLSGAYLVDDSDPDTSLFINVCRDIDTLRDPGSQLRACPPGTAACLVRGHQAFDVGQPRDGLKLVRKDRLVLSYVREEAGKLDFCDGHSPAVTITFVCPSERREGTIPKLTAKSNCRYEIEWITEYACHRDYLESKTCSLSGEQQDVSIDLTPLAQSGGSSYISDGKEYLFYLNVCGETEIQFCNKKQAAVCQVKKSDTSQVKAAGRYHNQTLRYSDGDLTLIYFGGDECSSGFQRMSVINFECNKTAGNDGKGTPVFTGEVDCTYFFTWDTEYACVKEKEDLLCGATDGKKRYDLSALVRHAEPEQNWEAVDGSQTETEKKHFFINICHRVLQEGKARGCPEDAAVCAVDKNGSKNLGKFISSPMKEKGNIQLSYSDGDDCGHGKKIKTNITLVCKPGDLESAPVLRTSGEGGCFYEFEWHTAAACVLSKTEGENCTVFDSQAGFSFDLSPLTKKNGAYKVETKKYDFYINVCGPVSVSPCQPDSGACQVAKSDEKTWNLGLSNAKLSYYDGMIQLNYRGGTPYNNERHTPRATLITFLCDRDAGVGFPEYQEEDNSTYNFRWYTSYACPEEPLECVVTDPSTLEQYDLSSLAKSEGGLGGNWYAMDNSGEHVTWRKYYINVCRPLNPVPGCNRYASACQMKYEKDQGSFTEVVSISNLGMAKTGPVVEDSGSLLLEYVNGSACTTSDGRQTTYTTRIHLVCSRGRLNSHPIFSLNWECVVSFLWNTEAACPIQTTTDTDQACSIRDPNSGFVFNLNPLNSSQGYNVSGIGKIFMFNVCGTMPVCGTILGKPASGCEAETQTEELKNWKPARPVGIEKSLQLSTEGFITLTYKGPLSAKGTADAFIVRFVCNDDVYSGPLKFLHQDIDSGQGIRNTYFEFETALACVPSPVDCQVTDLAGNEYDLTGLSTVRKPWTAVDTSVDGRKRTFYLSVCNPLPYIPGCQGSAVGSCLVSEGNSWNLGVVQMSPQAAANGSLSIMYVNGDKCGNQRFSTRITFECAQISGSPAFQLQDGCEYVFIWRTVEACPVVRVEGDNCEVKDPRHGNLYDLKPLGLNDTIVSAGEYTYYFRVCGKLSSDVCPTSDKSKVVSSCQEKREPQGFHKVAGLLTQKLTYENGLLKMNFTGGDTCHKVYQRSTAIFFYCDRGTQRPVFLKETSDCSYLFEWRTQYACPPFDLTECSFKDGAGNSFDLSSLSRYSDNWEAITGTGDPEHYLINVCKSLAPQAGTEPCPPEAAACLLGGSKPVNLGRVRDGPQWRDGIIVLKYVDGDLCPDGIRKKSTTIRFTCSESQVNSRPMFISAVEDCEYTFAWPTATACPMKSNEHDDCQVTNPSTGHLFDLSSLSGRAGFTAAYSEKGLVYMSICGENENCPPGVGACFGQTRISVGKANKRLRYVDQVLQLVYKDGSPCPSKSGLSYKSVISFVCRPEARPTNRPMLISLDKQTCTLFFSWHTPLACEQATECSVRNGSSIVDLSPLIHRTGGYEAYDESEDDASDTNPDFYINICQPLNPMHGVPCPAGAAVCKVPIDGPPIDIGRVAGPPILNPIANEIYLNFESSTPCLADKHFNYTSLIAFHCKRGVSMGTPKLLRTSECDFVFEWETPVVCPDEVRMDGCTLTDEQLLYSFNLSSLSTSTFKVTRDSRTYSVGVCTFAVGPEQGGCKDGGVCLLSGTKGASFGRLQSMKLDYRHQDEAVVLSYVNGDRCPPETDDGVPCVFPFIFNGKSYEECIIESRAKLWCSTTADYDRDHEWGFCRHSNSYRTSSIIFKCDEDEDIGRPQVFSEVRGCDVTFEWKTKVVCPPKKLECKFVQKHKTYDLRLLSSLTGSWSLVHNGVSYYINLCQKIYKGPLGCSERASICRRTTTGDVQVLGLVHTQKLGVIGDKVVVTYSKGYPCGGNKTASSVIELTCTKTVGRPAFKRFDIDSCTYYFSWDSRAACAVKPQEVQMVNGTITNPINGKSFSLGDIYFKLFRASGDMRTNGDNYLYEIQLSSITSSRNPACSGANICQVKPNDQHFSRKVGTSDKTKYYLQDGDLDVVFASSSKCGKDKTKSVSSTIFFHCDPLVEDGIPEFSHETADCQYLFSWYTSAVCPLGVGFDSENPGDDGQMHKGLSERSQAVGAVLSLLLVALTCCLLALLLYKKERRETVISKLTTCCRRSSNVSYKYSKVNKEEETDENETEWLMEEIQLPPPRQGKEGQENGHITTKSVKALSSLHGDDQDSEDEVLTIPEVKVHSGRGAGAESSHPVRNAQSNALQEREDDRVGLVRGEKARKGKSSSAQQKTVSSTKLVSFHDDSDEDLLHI

B1: SP28P (VHH)
VHH: EVQLVESGGGLVQAGGSLRLSCAASGSIVSFNGINWYRQAPGKQREWVGGITQGGNTMYADSVRGRFTISRDNTKNTMYLQMNSLKPEDTAVYYCRRPPVASWGQGTQVTVSS
notes: Llama VHH; on phage in the phage ELISA
EC50 (read off the curve) [1]: ~0.6 nM | Kd [2]: 6 nM | Kd [3]: 0.5 nM

B2: 13F11-13E8-IRDye800CW (VHH, not shown: small tags and cut ends)
chain: EVQLVESGGRLVQPGDSLRLSCAASGRTFSDNAMGWFRQAPGKERRFVAGISWAGGSTYYSDSVKGRFTISRDNAKNTVYLQMNSLKPEDTAVYYCAAGLRAWVQRMPKDYNYWGQGTQVTVSSGGGGSGGGGSGGGGSEVQLVESGGGLVQAGGSLRLSCAASRSISPMGWYRQAPGKQRELVAIMPSSGPPIYADSVQGRFTISRDNAKNTVYLQMNSLKPEDTAVYYCNVGGGYWGQGTQVTVSS
modifications: IRDye800CW by maleimide chemistry on the C-terminal free cysteine
notes: Biparatopic tandem VHH; also called IRD800CW conjugated 13F11-13E8; F11E8
Kd [4]: < 10 nM | Kd [5]: < 10 nM

B3: SP02P-SP26P-IRDye800CW (VHH, not shown: small tags and cut ends)
chain: EVQLVESGGGLVQAGGSLRLSCAASESISSIEQMGWFRQAPGKQRALVAINTYGGRTVYTNSVEGRFTMSRDSAKNMVYLQMTSLEPEDTAVYYCYAQTTAWRGGVWGQGTQVTVSSGGGGSGGGGSGGGGSEVQLVESGGGLVQAGGSLRLSCAASGRSFSSSVMGWFRQTPGKEREFVAATRWTAASTHYADSVKGRFTISRDHAENAVFLQMNSLKPEDTAVYYCAAGNYLDTAQYRYNYWGQGTQVTVSS
modifications: IRDye800CW by maleimide chemistry on the C-terminal free cysteine
notes: Biparatopic tandem VHH
Kd [6]: < 5 nM | Kd [7]: 2.2 nM

B4: SP26P (VHH)
VHH: EVQLVESGGGLVQAGGSLRLSCAASGRSFSSSVMGWFRQTPGKEREFVAATRWTAASTHYADSVKGRFTISRDHAENAVFLQMNSLKPEDTAVYYCAAGNYLDTAQYRYNYWGQGTQVTVSS
notes: Llama VHH; on phage in the phage ELISA; also called SP026P
IC50 (read off the curve) [8]: ~40 nM | binding result [9]: binds

B5: SP28P-SP26P-IRDye800CW (VHH, not shown: small tags and cut ends)
chain: EVQLVESGGGLVQAGGSLRLSCAASGSIVSFNGINWYRQAPGKQREWVGGITQGGNTMYADSVRGRFTISRDNTKNTMYLQMNSLKPEDTAVYYCRRPPVASWGQGTQVTVSSGGGGSGGGGSGGGGSEVQLVESGGGLVQAGGSLRLSCAASGRSFSSSVMGWFRQTPGKEREFVAATRWTAASTHYADSVKGRFTISRDHAENAVFLQMNSLKPEDTAVYYCAAGNYLDTAQYRYNYWGQGTQVTVSS
modifications: IRDye800CW by maleimide chemistry on the C-terminal free cysteine
notes: Biparatopic tandem VHH; also called SP28-SP26P; SP28-26P
Kd [7]: 32.4 nM

B6: SP02P (VHH)
VHH: EVQLVESGGGLVQAGGSLRLSCAASESISSIEQMGWFRQAPGKQRALVAINTYGGRTVYTNSVEGRFTMSRDSAKNMVYLQMTSLEPEDTAVYYCYAQTTAWRGGVWGQGTQVTVSS
notes: as for B1
Kd [10]: 6.2 nM | Kd [11]: 4.1 nM | Kd [12]: 6.7 nM | EC50 (read off the curve) [13]: ~4 nM
